Source: patent publication US20110097323A1 (published 2011)

T1: CD32B (FcγRII-B) (UniProt P31994 43-217, limits assumed)
T1 construct: No species or construct stated
T1 sequence (looked up): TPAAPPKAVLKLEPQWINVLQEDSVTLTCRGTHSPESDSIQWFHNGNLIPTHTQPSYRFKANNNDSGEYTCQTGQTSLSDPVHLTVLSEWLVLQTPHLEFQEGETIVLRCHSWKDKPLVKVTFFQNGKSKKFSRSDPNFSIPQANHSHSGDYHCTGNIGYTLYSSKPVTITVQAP


Columns and labels:
Assay in all cases: Table 3; relative to wild-type Fc; method not stated
[1] = molecular target: CD16A F158 (human, UniProt P08637 17-208, limits assumed)
[2] = molecular target: T1, CD32B (FcγRII-B)
[3] = molecular target: CD16A V158 (human, UniProt P08637 17-208, limits assumed)
CD16A V158, sequence (P08637 17-208 F176V limits assumed): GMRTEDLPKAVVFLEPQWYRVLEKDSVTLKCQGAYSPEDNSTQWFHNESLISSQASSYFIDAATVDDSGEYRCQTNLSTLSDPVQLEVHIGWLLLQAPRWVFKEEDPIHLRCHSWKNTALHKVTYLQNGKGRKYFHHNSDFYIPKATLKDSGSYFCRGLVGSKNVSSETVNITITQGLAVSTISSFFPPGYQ

CD16A F158, sequence (P08637 17-208 limits assumed): as the sequence (P08637 17-208 F176V limits assumed) above, with V160F counted along it

Binder	binding relative to wild-type Fc (fold) [1]	binding relative to wild-type Fc (fold) [2]	binding relative to wild-type Fc (fold) [3]
Fc variant D270E G316D P396L R416G (other, UniProt P01857-1 99-330, looked up, name in EU numbering, domain: Fc region; positions are EU index; also called D270E P396L G316D R416G) EPKSCDKTHTCPPCPAPELLGGPSVFLFPPKPKDTLMISRTPEVTCVVVDVSHEEPEVKFNWYVDGVEVHNAKTKPREEQYNSTYRVVSVLTVLHQDWLNDKEYKCKVSNKALPAPIEKTISKAKGQPREPQVYTLPPSRDELTKNQVSLTCLVKGFYPSDIAVEWESNGQPENNYKTTPLVLDSDGSFFLYSKLTVDKSGWQQGNVFSCSVMHEALHNHYTQKSLSLSPGK	0.94	1.07	1.22
Fc variant F243L D270E K392T P396L (other, UniProt P01857-1 99-330, looked up, name in EU numbering, domain: Fc region; positions are EU index) EPKSCDKTHTCPPCPAPELLGGPSVFLLPPKPKDTLMISRTPEVTCVVVDVSHEEPEVKFNWYVDGVEVHNAKTKPREEQYNSTYRVVSVLTVLHQDWLNGKEYKCKVSNKALPAPIEKTISKAKGQPREPQVYTLPPSRDELTKNQVSLTCLVKGFYPSDIAVEWESNGQPENNYTTTPLVLDSDGSFFLYSKLTVDKSRWQQGNVFSCSVMHEALHNHYTQKSLSLSPGK	2.44	0.44	3.16
Fc variant F243L R292P Y300L V305I P396L (other, UniProt P01857-1 99-330, looked up, name in EU numbering, domain: Fc region) EPKSCDKTHTCPPCPAPELLGGPSVFLLPPKPKDTLMISRTPEVTCVVVDVSHEDPEVKFNWYVDGVEVHNAKTKPPEEQYNSTLRVVSILTVLHQDWLNGKEYKCKVSNKALPAPIEKTISKAKGQPREPQVYTLPPSRDELTKNQVSLTCLVKGFYPSDIAVEWESNGQPENNYKTTPLVLDSDGSFFLYSKLTVDKSRWQQGNVFSCSVMHEALHNHYTQKSLSLSPGK	8.25	1.38	10.1
Fc variant P247L D270E N421K (other, UniProt P01857-1 99-330, looked up, name in EU numbering, domain: Fc region; positions are EU index) EPKSCDKTHTCPPCPAPELLGGPSVFLFPPKLKDTLMISRTPEVTCVVVDVSHEEPEVKFNWYVDGVEVHNAKTKPREEQYNSTYRVVSVLTVLHQDWLNGKEYKCKVSNKALPAPIEKTISKAKGQPREPQVYTLPPSRDELTKNQVSLTCLVKGFYPSDIAVEWESNGQPENNYKTTPPVLDSDGSFFLYSKLTVDKSRWQQGKVFSCSVMHEALHNHYTQKSLSLSPGK	2.46	0.58	1.89
Fc variant F243L D270E P396L Q419H (other, UniProt P01857-1 99-330, looked up, name in EU numbering, domain: Fc region; positions are EU index) EPKSCDKTHTCPPCPAPELLGGPSVFLLPPKPKDTLMISRTPEVTCVVVDVSHEEPEVKFNWYVDGVEVHNAKTKPREEQYNSTYRVVSVLTVLHQDWLNGKEYKCKVSNKALPAPIEKTISKAKGQPREPQVYTLPPSRDELTKNQVSLTCLVKGFYPSDIAVEWESNGQPENNYKTTPLVLDSDGSFFLYSKLTVDKSRWQHGNVFSCSVMHEALHNHYTQKSLSLSPGK	1.15	0.26	1.46
Fc variant D270E K392T P396L (other, UniProt P01857-1 99-330, looked up, name in EU numbering, domain: Fc region; positions are EU index) EPKSCDKTHTCPPCPAPELLGGPSVFLFPPKPKDTLMISRTPEVTCVVVDVSHEEPEVKFNWYVDGVEVHNAKTKPREEQYNSTYRVVSVLTVLHQDWLNGKEYKCKVSNKALPAPIEKTISKAKGQPREPQVYTLPPSRDELTKNQVSLTCLVKGFYPSDIAVEWESNGQPENNYTTTPLVLDSDGSFFLYSKLTVDKSRWQQGNVFSCSVMHEALHNHYTQKSLSLSPGK	2.28	0.79	1.81
Fc variant F243L R292P Y300L P396L (other, UniProt P01857-1 99-330, looked up, name in EU numbering, domain: Fc region; positions are EU index) EPKSCDKTHTCPPCPAPELLGGPSVFLLPPKPKDTLMISRTPEVTCVVVDVSHEDPEVKFNWYVDGVEVHNAKTKPPEEQYNSTLRVVSVLTVLHQDWLNGKEYKCKVSNKALPAPIEKTISKAKGQPREPQVYTLPPSRDELTKNQVSLTCLVKGFYPSDIAVEWESNGQPENNYKTTPLVLDSDGSFFLYSKLTVDKSRWQQGNVFSCSVMHEALHNHYTQKSLSLSPGK	5.62	1.07	10.1
Fc variant F243L R292P V305I (other, UniProt P01857-1 99-330, looked up, name in EU numbering, domain: Fc region; positions are EU index) EPKSCDKTHTCPPCPAPELLGGPSVFLLPPKPKDTLMISRTPEVTCVVVDVSHEDPEVKFNWYVDGVEVHNAKTKPPEEQYNSTYRVVSILTVLHQDWLNGKEYKCKVSNKALPAPIEKTISKAKGQPREPQVYTLPPSRDELTKNQVSLTCLVKGFYPSDIAVEWESNGQPENNYKTTPPVLDSDGSFFLYSKLTVDKSRWQQGNVFSCSVMHEALHNHYTQKSLSLSPGK	1.43		2.56
Fc variant F243L P247L D270E N421K (other, UniProt P01857-1 99-330, looked up, name in EU numbering, domain: Fc region; positions are EU index) EPKSCDKTHTCPPCPAPELLGGPSVFLLPPKLKDTLMISRTPEVTCVVVDVSHEEPEVKFNWYVDGVEVHNAKTKPREEQYNSTYRVVSVLTVLHQDWLNGKEYKCKVSNKALPAPIEKTISKAKGQPREPQVYTLPPSRDELTKNQVSLTCLVKGFYPSDIAVEWESNGQPENNYKTTPPVLDSDGSFFLYSKLTVDKSRWQQGKVFSCSVMHEALHNHYTQKSLSLSPGK	3.45	0.32	2.3
Fc variant F243L P247L N421K (other, UniProt P01857-1 99-330, looked up, name in EU numbering, domain: Fc region; positions are EU index) EPKSCDKTHTCPPCPAPELLGGPSVFLLPPKLKDTLMISRTPEVTCVVVDVSHEDPEVKFNWYVDGVEVHNAKTKPREEQYNSTYRVVSVLTVLHQDWLNGKEYKCKVSNKALPAPIEKTISKAKGQPREPQVYTLPPSRDELTKNQVSLTCLVKGFYPSDIAVEWESNGQPENNYKTTPPVLDSDGSFFLYSKLTVDKSRWQQGKVFSCSVMHEALHNHYTQKSLSLSPGK	1.71	0.17	1.89
Fc variant R255L D270E R292G P396L (other, UniProt P01857-1 99-330, looked up, name in EU numbering, domain: Fc region; positions are EU index) EPKSCDKTHTCPPCPAPELLGGPSVFLFPPKPKDTLMISLTPEVTCVVVDVSHEEPEVKFNWYVDGVEVHNAKTKPGEEQYNSTYRVVSVLTVLHQDWLNGKEYKCKVSNKALPAPIEKTISKAKGQPREPQVYTLPPSRDELTKNQVSLTCLVKGFYPSDIAVEWESNGQPENNYKTTPLVLDSDGSFFLYSKLTVDKSRWQQGNVFSCSVMHEALHNHYTQKSLSLSPGK		0.65	
Fc variant F243L R255L D270E P396L (other, UniProt P01857-1 99-330, looked up, name in EU numbering, domain: Fc region; positions are EU index) EPKSCDKTHTCPPCPAPELLGGPSVFLLPPKPKDTLMISLTPEVTCVVVDVSHEEPEVKFNWYVDGVEVHNAKTKPREEQYNSTYRVVSVLTVLHQDWLNGKEYKCKVSNKALPAPIEKTISKAKGQPREPQVYTLPPSRDELTKNQVSLTCLVKGFYPSDIAVEWESNGQPENNYKTTPLVLDSDGSFFLYSKLTVDKSRWQQGNVFSCSVMHEALHNHYTQKSLSLSPGK	1.64	0.38	1.75
Fc variant D270E P396L Q419H (other, UniProt P01857-1 99-330, looked up, name in EU numbering, domain: Fc region; positions are EU index) EPKSCDKTHTCPPCPAPELLGGPSVFLFPPKPKDTLMISRTPEVTCVVVDVSHEEPEVKFNWYVDGVEVHNAKTKPREEQYNSTYRVVSVLTVLHQDWLNGKEYKCKVSNKALPAPIEKTISKAKGQPREPQVYTLPPSRDELTKNQVSLTCLVKGFYPSDIAVEWESNGQPENNYKTTPLVLDSDGSFFLYSKLTVDKSRWQHGNVFSCSVMHEALHNHYTQKSLSLSPGK		0.68	1.64
Fc variant F243L D270E G316D R416G (other, UniProt P01857-1 99-330, looked up, name in EU numbering, domain: Fc region; positions are EU index) EPKSCDKTHTCPPCPAPELLGGPSVFLLPPKPKDTLMISRTPEVTCVVVDVSHEEPEVKFNWYVDGVEVHNAKTKPREEQYNSTYRVVSVLTVLHQDWLNDKEYKCKVSNKALPAPIEKTISKAKGQPREPQVYTLPPSRDELTKNQVSLTCLVKGFYPSDIAVEWESNGQPENNYKTTPPVLDSDGSFFLYSKLTVDKSGWQQGNVFSCSVMHEALHNHYTQKSLSLSPGK	1.34	0.2	1.5
Fc variant D270E G316D R416G (other, UniProt P01857-1 99-330, looked up, name in EU numbering, domain: Fc region; positions are EU index) EPKSCDKTHTCPPCPAPELLGGPSVFLFPPKPKDTLMISRTPEVTCVVVDVSHEEPEVKFNWYVDGVEVHNAKTKPREEQYNSTYRVVSVLTVLHQDWLNDKEYKCKVSNKALPAPIEKTISKAKGQPREPQVYTLPPSRDELTKNQVSLTCLVKGFYPSDIAVEWESNGQPENNYKTTPPVLDSDGSFFLYSKLTVDKSGWQQGNVFSCSVMHEALHNHYTQKSLSLSPGK	2.49	0.78	2.18
Fc variant F243L R292P V305I P396L (other, UniProt P01857-1 99-330, looked up, name in EU numbering, domain: Fc region; positions are EU index) EPKSCDKTHTCPPCPAPELLGGPSVFLLPPKPKDTLMISRTPEVTCVVVDVSHEDPEVKFNWYVDGVEVHNAKTKPPEEQYNSTYRVVSILTVLHQDWLNGKEYKCKVSNKALPAPIEKTISKAKGQPREPQVYTLPPSRDELTKNQVSLTCLVKGFYPSDIAVEWESNGQPENNYKTTPLVLDSDGSFFLYSKLTVDKSRWQQGNVFSCSVMHEALHNHYTQKSLSLSPGK	2.53	0.4	5.37
